Experimental data taken from patent publication US20230192867A1 (published 2023).
Values belong to the binder of their own block, whether it stands above or below them.

Tests used:
huGARP/hLTGF-β complex [1] = biological target: T1, huGARP/hLTGF-β complex (human, UniProt P01137 30-390); assay: cell-based or functional assay
huGARP/hLTGF-β complex [2] = biological target: T1, huGARP/hLTGF-β complex; assay: flow cytometry on activated primary human Tregs, PE secondary antibody
Procedure: Anti-huGARP antibodies GARP.2, GARP.3, 1H10, 3H5, 22G8 and a hIgG1 isotype control were incubated at 4° C. for 30 minutes with activated Tregs from a healthy donor in a 96 well plate at a starting concentrations of 40 μg/ml followed by serial dilutions. Activated Tregs were prepared from previously isolated and expanded Tregs stimulated for two days with anti-CD3/CD28 activation beads (ThermoFisher, Waltham, Mass., USA) in the presence of 100 units/mL of recombinant human IL-2. An appropriate PE secondary antibody against the primary anti-GARP antibody was applied and washed off after incubation for 15 minutes at 4° C. Samples were processed on a flow cytometer and PE fluorescence intensities analyzed on FLOWJO® flow cytometry system. EC50 calculations were derived using […] PRISM® data analysis software.

T1 sequence (chain, as listed by the source, form in doubt, chain 1 of 2): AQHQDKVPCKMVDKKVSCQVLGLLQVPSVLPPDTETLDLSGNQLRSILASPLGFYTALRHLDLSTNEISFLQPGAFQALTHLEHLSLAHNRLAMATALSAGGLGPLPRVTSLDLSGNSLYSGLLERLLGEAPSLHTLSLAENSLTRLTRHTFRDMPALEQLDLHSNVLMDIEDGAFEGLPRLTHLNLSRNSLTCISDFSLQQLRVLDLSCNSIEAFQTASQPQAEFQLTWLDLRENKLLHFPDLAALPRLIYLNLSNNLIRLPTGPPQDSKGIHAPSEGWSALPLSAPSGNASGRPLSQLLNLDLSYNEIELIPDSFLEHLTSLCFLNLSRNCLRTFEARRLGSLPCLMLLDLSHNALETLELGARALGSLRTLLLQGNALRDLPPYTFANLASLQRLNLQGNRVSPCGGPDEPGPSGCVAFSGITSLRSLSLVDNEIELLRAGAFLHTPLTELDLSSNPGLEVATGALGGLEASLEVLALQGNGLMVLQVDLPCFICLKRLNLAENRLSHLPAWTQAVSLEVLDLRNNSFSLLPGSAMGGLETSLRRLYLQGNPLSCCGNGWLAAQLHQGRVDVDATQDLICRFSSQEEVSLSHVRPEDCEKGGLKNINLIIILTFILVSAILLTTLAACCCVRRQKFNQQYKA
T1 sequence (P01137 30-390, form in doubt, chain 2 of 2): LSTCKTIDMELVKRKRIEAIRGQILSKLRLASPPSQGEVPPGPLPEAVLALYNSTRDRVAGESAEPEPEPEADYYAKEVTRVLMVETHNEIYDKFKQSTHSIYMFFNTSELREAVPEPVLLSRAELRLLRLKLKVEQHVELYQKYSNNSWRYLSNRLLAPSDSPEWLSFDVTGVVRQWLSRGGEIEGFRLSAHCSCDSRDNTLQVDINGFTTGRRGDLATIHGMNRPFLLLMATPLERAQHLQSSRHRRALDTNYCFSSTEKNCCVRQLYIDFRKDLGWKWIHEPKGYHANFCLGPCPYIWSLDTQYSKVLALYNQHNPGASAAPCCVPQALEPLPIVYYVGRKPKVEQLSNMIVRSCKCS

TGF-β release (ELISA of soluble TGF-β after six hours, 3A9 cells expressing huGARP/latent TGF-β complex on αvβ8 integrin) (huGARP/hLTGF-β complex [1]): 16 fold
B1: anti-huGARP mAb 10H7 (antibody, IgG1, V domains shown)
VH: QVQLVESGGGVVQPGRSLRLSCAASEFTFSSYGMYWVRQAPGKGLEWVSIIWHDGSKKYYVDSVKGRFTISRDNSKNTLYLQMNSLRGEDTAVYYCAREQWESWYLDLWGRGTLVTVSS
VL: not shown

EC50 (huGARP/hLTGF-β complex [2]): 0.61 nM
B2: anti-huGARP antibody GARP.2 (antibody, V domains shown)
VH: B1 VH
VL: not shown
notes: Variant of mAb 10H7 with a human IgG1.1 constant domain in place of the original IgG1; also called 10H7/GARP.2
